± gives the uncertainty stated by the source.
Experiment: self-splicing fitness, log relative to wild type (ln ratio); higher = more splicing; Tetrahymena group I intron in knt gene, E. coli kanamycin selection, DiMSum; sequences stand for … in CUCUCU…GGAGGGAAAAGUUAUCAGGCAUGCACCUGGUAGCUAGUCUUUAAACCAAUAGAUUGCAUCGGUUUAAAAGGCAAGACCGUCAAAUUGCGGGAAAGGGGUCAACAGCCGUUCAGUACCAAGUCUCAGGGGAAACUUUGAGAUGGCCUUGCAAAGGGUAUGGUAAUAAGCUGACGGACAUGGUCCUAACCACGCAGCCAAGUCCUAAGUCAACAGAUCUUCUGUUGAUAUGGAUGCAGUUCACAGACUAAAUGUCGGUCGGGGAAGAUGUAUUCUUCUCAUAAGAUAUAGUCGGACCUCUCCUUAAUGGGAGCUAGCGGAUGAAGUGAUGCAACACUGGAGCCGCUGGGAACUAAUUUGUAUGCGAAAGUAUAUUGAUUAGUUUUGGAGUACUCGUGGUCG
Method in brief: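 Fitness was computed with DiMSum as the error-weighted combination of replicate fold changes, kanamycin versus none, each normalised to wild type. The library randomised all eight intron nucleotides of the P1ex region, with the intron placed in the knt kanamycin-resistance gene on pET-22b(+) in E. coli BL21(DE3). Six replicate transformations were grown overnight at 37°C or 30°C on LB agar with or without 25 μg/mL kanamycin, plus 100 μg/mL carbenicillin, 50 μM IPTG and 0.2% rhamnose. Pooled colonies were amplicon-sequenced on an Illumina HiSeq 2500.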

AUGUAGCAAUAUUACGCCAG
self-splicing fitness (ln) (30 °C): -3.46 ± 0.31
self-splicing fitness (ln) (37 °C): -1.05 ± 0.31

UACAAGCAAUAUUACGCGAA
self-splicing fitness (ln) (30 °C): -2.37 ± 0.099
self-splicing fitness (ln) (37 °C): -0.769 ± 0.095

UCGAAGCAAUAUUACGAUUC
self-splicing fitness (ln) (30 °C): -4.04 ± 0.39
self-splicing fitness (ln) (37 °C): -1.74 ± 0.26

UAAGAGCAAUAUUACGUAAG
self-splicing fitness (ln) (30 °C): -3.02 ± 0.2
self-splicing fitness (ln) (37 °C): -2.1 ± 0.21

CGGGAGCAAUAUUACGUCCG
self-splicing fitness (ln) (30 °C): -1.07 ± 0.43

UCGAAGCAAUAUUACGGCCA
self-splicing fitness (ln) (30 °C): -1.64 ± 0.16
self-splicing fitness (ln) (37 °C): 0.195 ± 0.14

CGUUAGCAAUAUUACGCUAU
self-splicing fitness (ln) (30 °C): -2.29 ± 0.28

AGGUAGCAAUAUUACGUGUU
self-splicing fitness (ln) (30 °C): -2.894 ± 0.016
self-splicing fitness (ln) (37 °C): -1.6 ± 0.034

GAACAGCAAUAUUACGCGUU
self-splicing fitness (ln) (30 °C): -3.27 ± 0.12
self-splicing fitness (ln) (37 °C): -2.69 ± 0.14

UUGCAGCAAUAUUACGUGGG
self-splicing fitness (ln) (30 °C): -3.24 ± 0.12
self-splicing fitness (ln) (37 °C): -2.8 ± 0.17

GGAAAGCAAUAUUACGUCCU
self-splicing fitness (ln) (30 °C): -3.68 ± 0.21
self-splicing fitness (ln) (37 °C): -1.14 ± 0.14

GAACAGCAAUAUUACGCCGC
self-splicing fitness (ln) (37 °C): -2.35 ± 0.34

UCGCAGCAAUAUUACGGUAC
self-splicing fitness (ln) (37 °C): -2.21 ± 0.31

UCAAAGCAAUAUUACGGUAC
self-splicing fitness (ln) (30 °C): -3.28 ± 0.16
self-splicing fitness (ln) (37 °C): -2.71 ± 0.22

GUUUAGCAAUAUUACGAUGA
self-splicing fitness (ln) (30 °C): -2.41 ± 0.21
self-splicing fitness (ln) (37 °C): -1.39 ± 0.14

CCAAAGCAAUAUUACGUCCU
self-splicing fitness (ln) (30 °C): -4.59 ± 0.31
self-splicing fitness (ln) (37 °C): -2.33 ± 0.21

GUGAAGCAAUAUUACGUCUC
self-splicing fitness (ln) (30 °C): -0.941 ± 0.11
self-splicing fitness (ln) (37 °C): -0.553 ± 0.12

UGCAAGCAAUAUUACGCGUG
self-splicing fitness (ln) (30 °C): -3.54 ± 0.14
self-splicing fitness (ln) (37 °C): -3.15 ± 0.2

UAUGAGCAAUAUUACGCAAA
self-splicing fitness (ln) (30 °C): -2.74 ± 0.45

CAGCAGCAAUAUUACGCCGU
self-splicing fitness (ln) (30 °C): -2.74 ± 0.22
self-splicing fitness (ln) (37 °C): -2.41 ± 0.28

CAAGAGCAAUAUUACGUCUA
self-splicing fitness (ln) (30 °C): -2.41 ± 0.13
self-splicing fitness (ln) (37 °C): -1.56 ± 0.11

AUCAAGCAAUAUUACGUAUC
self-splicing fitness (ln) (30 °C): -4.11 ± 0.21
self-splicing fitness (ln) (37 °C): -2.76 ± 0.34

CAAAAGCAAUAUUACGGAGU
self-splicing fitness (ln) (30 °C): -3.64 ± 0.14
self-splicing fitness (ln) (37 °C): -2.56 ± 0.16

AGGUAGCAAUAUUACGCACG
self-splicing fitness (ln) (30 °C): -0.782 ± 0.016
self-splicing fitness (ln) (37 °C): -0.31 ± 0.035

UAGCAGCAAUAUUACGGAUU
self-splicing fitness (ln) (30 °C): -3.22 ± 0.14
self-splicing fitness (ln) (37 °C): -1.08 ± 0.13

GAAGAGCAAUAUUACGUCGC
self-splicing fitness (ln) (30 °C): -2.58 ± 0.28
self-splicing fitness (ln) (37 °C): 0.595 ± 0.21

GUCAAGCAAUAUUACGUGAU
self-splicing fitness (ln) (30 °C): -4.06 ± 0.23
self-splicing fitness (ln) (37 °C): -3.23 ± 0.27

UGAAAGCAAUAUUACGGCCU
self-splicing fitness (ln) (30 °C): -0.0439 ± 0.16
self-splicing fitness (ln) (37 °C): 0.493 ± 0.18

CUAGAGCAAUAUUACGCCGC
self-splicing fitness (ln) (30 °C): -2.52 ± 0.37

AAUUAGCAAUAUUACGUAUC
self-splicing fitness (ln) (30 °C): -2.2 ± 0.15
self-splicing fitness (ln) (37 °C): -0.0316 ± 0.13

UGGAAGCAAUAUUACGGUUC
self-splicing fitness (ln) (30 °C): -3.84 ± 0.2
self-splicing fitness (ln) (37 °C): -2.21 ± 0.2

CGCGAGCAAUAUUACGUAGA
self-splicing fitness (ln) (30 °C): -3.09 ± 0.15
self-splicing fitness (ln) (37 °C): -2.93 ± 0.23

GUGCAGCAAUAUUACGUUGU
self-splicing fitness (ln) (30 °C): -3.71 ± 0.17
self-splicing fitness (ln) (37 °C): -2.56 ± 0.17

AGGUAGCAAUAUUACGGGGC
self-splicing fitness (ln) (30 °C): -3.748 ± 0.033
self-splicing fitness (ln) (37 °C): -2.96 ± 0.043

AGCCAGCAAUAUUACGAGGC
self-splicing fitness (ln) (30 °C): -3.6 ± 0.2
self-splicing fitness (ln) (37 °C): -2.02 ± 0.19

UUGCAGCAAUAUUACGUUCU
self-splicing fitness (ln) (30 °C): -2.44 ± 0.12
self-splicing fitness (ln) (37 °C): -0.872 ± 0.11

ACAUAGCAAUAUUACGUAAU
self-splicing fitness (ln) (30 °C): -2.87 ± 0.11
self-splicing fitness (ln) (37 °C): -1.93 ± 0.14

GGAUAGCAAUAUUACGAGCA
self-splicing fitness (ln) (30 °C): -1.26 ± 0.26
self-splicing fitness (ln) (37 °C): -1.05 ± 0.14

UCGGAGCAAUAUUACGGUUG
self-splicing fitness (ln) (30 °C): -3.25 ± 0.24
self-splicing fitness (ln) (37 °C): -2.48 ± 0.33

— the supplement of paper PMC7877785
